Measured values reported in US20020037840A1 (GENETICS INSTITUTE, published 2002).
Blank lines part the entries; values can stand above or below the binder they belong to.

Biological target: T1, full length form of human PSGL-1 (human, UniProt Q14242 42-412)
T1 construct: whole, on cells; Expressed whole in COS cells and precipitated from the cell lysate with the biotinylated anti-PSGL-1 antibody 2G3; also called P-selectin glycoprotein ligand; CD162
T1 sequence (looked up): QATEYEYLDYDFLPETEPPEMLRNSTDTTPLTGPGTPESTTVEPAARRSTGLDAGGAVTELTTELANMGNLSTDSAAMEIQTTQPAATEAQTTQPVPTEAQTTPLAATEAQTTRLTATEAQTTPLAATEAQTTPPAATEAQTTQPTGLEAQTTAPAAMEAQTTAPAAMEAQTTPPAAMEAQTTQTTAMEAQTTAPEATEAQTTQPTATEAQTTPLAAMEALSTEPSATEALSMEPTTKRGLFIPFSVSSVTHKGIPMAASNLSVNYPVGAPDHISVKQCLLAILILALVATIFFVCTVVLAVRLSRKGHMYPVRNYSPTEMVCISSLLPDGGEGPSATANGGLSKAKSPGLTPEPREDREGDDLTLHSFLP
Assay: co-immunoprecipitation from COS cell lysates with anti-PSGL-1 antibody 2G3, anti-T7 Western blot
Description: COS cells were transfected with T7-tagged forms of SLIC-1 as described in Example 3. Vector pMT-PL85A (Genetics Institute) was included in a subset of samples to transiently overexpress the full length form of human PSGL-1. Cell lysis was carried out as described above in 900 μL/dish of lysis buffer consisting of 20 mM Tris-HCl, pH 7.4, 137 mM NaCl, 0.05% Triton-X and protease inhibitors (Hildt, E and Oess, S J 1999 J. Exp. Med. 189(11): 1707-1714). A small volume of cleared cell lysate was used for Western Blotting to detect overexpressed protein in the whole cell lysate and for spectrophotometric measurement of the protein content. A volume of 300 μL of each lysate was used for co-immunoprecipitation studies with either 2.5 μg of biotinylated monoclonal mouse anti-PSGL-1 antibody (antibody 2G3, Genetics Institute) or a biotinylated control antibody (SIGMA). The samples were agitated at 4° C. for 5 hours, and immuncomplexes were precipitated with streptavidin agarose beads (Pierce) under the same conditions for 1 hour. […] The presence of T7-tagged SLIC-1 protein in the samples was detected by Western blot analysis using an anti-T7 Horse Radish Peroxidase LumiBlot Kit (Novagen) according to the manufacturer's instructions.

binding result: no binding
B1: T7-tagged truncated SLIC-1 protein comprising amino acid residues 1-88 (other)
chain: MASMTGGQQMGMASPEHPGSPGCMGPITQCTARTQQEAPATGPDLPHPGPDGHLDTHSGLSSNSSMTTRELQQYWQNQKCRWKHVKLLFEIASARIEER
notes: also called T7SLIC-1AA88; encoded by PED.T7U5AA88

binding result: no binding
B2: T7-tagged truncated SLIC-1 protein comprising amino acid residues 1-160 (other)
chain: MASMTGGQQMGMASPEHPGSPGCMGPITQCTARTQQEAPATGPDLPHPGPDGHLDTHSGLSSNSSMTTRELQQYWQNQKCRWKHVKLLFEIASARIEERKVSKFVVYQIIVIQTGSFDNNKAVLERRYSDFAKLQKALLKTFREEIEDVEFPRKHLTGNFAEEMICERRRA
notes: Made with a linker; also called T7SLIC-1AA160; encoded by pED.T7U5AA160
